Results on 27 molecules are retold here after patent US20250145684A1 (IMMATICS BIOTECHNOLOGIES, published 2025).

For this assay, the target named is T1, HLA-B*08:01 (human).
T1 construct: MHC monomer first loaded with a UV-sensitive peptide that is cleaved by UV light and exchanged for the test peptide
The experiment in a line: UV peptide exchange ELISA. The source says: Candidate peptides for T cell based therapies according to the present invention were further tested for their MHC binding capacity (affinity). The individual peptide-MHC complexes were produced by UV-ligand exchange, where a UV-sensitive peptide is cleaved upon UV-irradiation and exchanged with the peptide of interest as analyzed. Only peptide candidates that can effectively bind and stabilize the peptide-receptive MHC molecules prevent dissociation of the MHC complexes. To determine the yield of the exchange reaction, an ELISA was performed based on the detection of the light chain (β2m) of stabilized MHC complexes. The assay was performed as generally described in Rodenko et al. (Rodenko et al., 2006).
96 well MAXISorp plates (NUNC) were coated over night with 2 ug/ml streptavidin in PBS at room temperature, washed 4× and blocked for 1 h at 37° C. in 2% BSA containing blocking buffer. Refolded HLA-A*02:01/MLA-001 monomers served as standards, covering the range of 15-500 ng/ml. Peptide-MHC monomers of the UV-exchange reaction were diluted 100-fold in blocking buffer. Samples were incubated for 1 h at 37° C., washed four times, incubated with 2 ug/ml HRP conjugated anti-β2m for 1 h at 37° C., washed again and detected with TMB solution that is stopped with […]. Absorption was measured at 450 nm. Candidate peptides that show a high exchange yield (preferably higher than 50%, most preferred higher than 75%) are generally preferred for a generation and production of antibodies or fragments thereof, and/or T cell receptors or fragments thereof, as they show sufficient avidity to the MHC molecules and prevent dissociation of the MHC complexes.
Background: In an ELISA, binding on a coated surface is turned into a signal by an enzyme label.

B1: TAAEARLSL (SEQ ID NO: 126) (peptide)
peptide: TAAEARLSL
Turning to B1, the peptide exchange yield was in the range of 20 to 50%.

B2: LPAPYQHQL (SEQ ID NO: 130) (peptide)
peptide: LPAPYQHQL
In turn, B2 registered a peptide exchange yield of 20 to 50%.

B3: EPFTRPVL (SEQ ID NO: 13) (peptide)
peptide: EPFTRPVL
B3 returned a peptide exchange yield of 20 to 50%.

B4: DQRSRATL (SEQ ID NO: 134) (peptide)
peptide: DQRSRATL
B4: the peptide exchange yield lay within 20 to 50%.

B5: MIYRKALRL (SEQ ID NO: 145) (peptide)
peptide: MIYRKALRL
The molecule B5 showed a peptide exchange yield of 20 to 50%.

B6: YGRIGISLF (SEQ ID NO: 139) (peptide)
peptide: YGRIGISLF
B6 came in with a peptide exchange yield of 20 to 50%.

B7: QATPRVRIL (SEQ ID NO: 133) (peptide)
peptide: QATPRVRIL
The molecule B7 yielded a peptide exchange yield of 20 to 50%.

B8: MSTKTTSI (SEQ ID NO: 131) (peptide)
peptide: MSTKTTSI
B8: the peptide exchange yield was in the range of 20 to 50%.

B9: TQKSVQVL (SEQ ID NO: 149) (peptide)
peptide: TQKSVQVL
B9 had a peptide exchange yield of 20 to 50%.

B10: IAVDKPITL (SEQ ID NO: 140) (peptide)
peptide: IAVDKPITL
Consider B10, for which the peptide exchange yield fell in the range of 20 to 50%.

B11: FPLVTPLL (SEQ ID NO: 125) (peptide)
peptide: FPLVTPLL
The molecule B11 displayed a peptide exchange yield of 50 to 75%.

B12: YNLIYSMCL (SEQ ID NO: 142) (peptide)
peptide: YNLIYSMCL
Molecule B12 gave a peptide exchange yield of 50 to 75%.

B13: TQHLTVATL (SEQ ID NO: 138) (peptide)
peptide: TQHLTVATL
B13 showed a peptide exchange yield of 50 to 75%.

B14: AQLKLVAL (SEQ ID NO: 141) (peptide)
peptide: AQLKLVAL
Turning to B14, the peptide exchange yield fell in the range of 20 to 50%.

B15: FQTAHFYL (SEQ ID NO: 146) (peptide)
peptide: FQTAHFYL
B15 had a peptide exchange yield of 50 to 75%.

B16: KMFYRKDVM (SEQ ID NO: 136) (peptide)
peptide: KMFYRKDVM
For B16, the peptide exchange yield lay within 50 to 75%.

B17: HAMDGASHL (SEQ ID NO: 147) (peptide)
peptide: HAMDGASHL
Molecule B17 showed a peptide exchange yield of 20 to 50%.

B18: DVNPVSLQL (SEQ ID NO: 148) (peptide)
peptide: DVNPVSLQL
Molecule B18 displayed a peptide exchange yield of 20 to 50%.

B19: HRILRLPAL (SEQ ID NO: 129) (peptide)
peptide: HRILRLPAL
B19 showed a peptide exchange yield of 50 to 75%.

B20: IEQIRAVL (SEQ ID NO: 144) (peptide)
peptide: IEQIRAVL
For the molecule B20, the peptide exchange yield is 20 to 50%.

B21: HFHNRHVF (SEQ ID NO: 128) (peptide)
peptide: HFHNRHVF
Turning to B21, the peptide exchange yield is 50 to 75%.

B22: ELILKRCL (SEQ ID NO: 14) (peptide)
peptide: ELILKRCL
B22 came in with a peptide exchange yield of 50 to 75%.

B23: IPIQAHQI (SEQ ID NO: 132) (peptide)
peptide: IPIQAHQI
B23 yielded a peptide exchange yield of 50 to 75%.

B24: DADLREQAL (SEQ ID NO: 143) (peptide)
peptide: DADLREQAL
Molecule B24 returned a peptide exchange yield of 20 to 50%.

B25: EPVIRTVSI (SEQ ID NO: 127) (peptide)
peptide: EPVIRTVSI
Turning to B25, the peptide exchange yield was 50 to 75%.

B26: VQWKPPAL (SEQ ID NO: 137) (peptide)
peptide: VQWKPPAL
On to B26, for which the peptide exchange yield was 20 to 50%.

B27: EYLETKRLAF (SEQ ID NO: 135) (peptide)
peptide: EYLETKRLAF
On to B27, for which the peptide exchange yield lay in the range of 10 to 20%.
